# Article PMC10144703, “Molecular Mechanism of Sirtuin 1 Inhibition by Human Immunodeficiency Virus 1 Tat Protein” (Life, 2023)
# Assays:
# Format in all cases: biochemical
# [1] = target: T1, human full-length Sirt1 (fl-Sirt1) (Homo sapiens, UniProt Q96EB6); test: FdL deacetylation assay, fl-Sirt1; conditions: Figure 1D,E; compared with Sirt2 and Sirt3
# T1 construct: human full-length Sirt1 (fl-Sirt1) in pET-15b; made in house; host or cells: E. coli CodonPlus(DE3)
# T1 sequence (Q96EB6 1-747): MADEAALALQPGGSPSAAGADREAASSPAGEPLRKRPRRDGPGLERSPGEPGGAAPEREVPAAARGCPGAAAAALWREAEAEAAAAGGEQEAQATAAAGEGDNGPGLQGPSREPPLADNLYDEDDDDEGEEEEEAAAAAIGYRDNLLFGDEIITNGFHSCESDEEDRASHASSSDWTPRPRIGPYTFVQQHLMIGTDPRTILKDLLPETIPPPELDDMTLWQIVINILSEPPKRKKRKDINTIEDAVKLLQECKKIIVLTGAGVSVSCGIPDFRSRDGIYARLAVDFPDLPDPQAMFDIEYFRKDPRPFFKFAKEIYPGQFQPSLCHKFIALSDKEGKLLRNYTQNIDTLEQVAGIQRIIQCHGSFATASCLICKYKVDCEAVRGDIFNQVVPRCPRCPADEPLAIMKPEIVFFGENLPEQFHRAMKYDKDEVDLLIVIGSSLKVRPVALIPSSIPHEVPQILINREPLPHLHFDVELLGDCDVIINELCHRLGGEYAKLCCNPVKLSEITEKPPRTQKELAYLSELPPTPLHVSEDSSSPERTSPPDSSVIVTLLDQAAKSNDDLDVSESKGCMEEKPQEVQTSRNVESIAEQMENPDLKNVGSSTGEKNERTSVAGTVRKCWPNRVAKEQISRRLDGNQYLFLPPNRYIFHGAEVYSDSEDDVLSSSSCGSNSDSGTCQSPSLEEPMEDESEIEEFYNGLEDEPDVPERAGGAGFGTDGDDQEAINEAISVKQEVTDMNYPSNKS
# Description: A human mini-Sirt1 construct (aa 183-505-(GGGS)2-641-665), as described in [27], was generated in a modified pET-19b with a TEV cleavage site. This construct and human full-length Sirt1 (fl-Sirt1) in pET-15b, Sirt1-(183-664) and Sirt1-(214-664) in pET-15b, mini-Sirt1-∆SBD (aa 214-505-(GGGS)2-641-665) and mini-Sirt1-∆ESA (aa 183–505) in a modified pET-19b with TEV cleavage site, Sirt2-(43-356) in a modified pET-19b with a His6-Sumo tag, Sirt3-(93-399) in a modified pET-32a with Trx-His6 tag and TEV cleavage site, hSirt3-(118-399) in pVFT3S (Sungkyunkwan University, Seoul, Republic of Korea) with His6-Trx tag and TEV cleavage site, Sirt5-(34-302) in pET-151/D-TOPO, and Sirt6-(1-355) in pQE80L.1 were purified as described. Shortly, proteins were expressed at 20 °C (mini-Sirt1 constructs at 16 °C) in E. coli CodonPlus(DE3), cell lysates were cleared by centrifugation, and proteins were purified via affinity chromatography using a nickel NTA column. After digestion with thrombin or TEV protease, proteins were re-run over the nickel NTA column, pooled, and concentrated. The samples were, then, subjected either directly to size exclusion chromatography in 50 mM Tris/HCl, pH 8.0, 150 mM NaCl, 1 mM TCEP, or to an ion exchange chromatography followed by size exclusion chromatography. […]
# [2] = target: T2, human Sirt6 (Homo sapiens, UniProt Q8N6T7); test: Continuous coupled enzymatic assay, Sirt6; conditions: 65 μM Tat-Cys^−, myristoylated peptide at substrate Km, n = 3
# T2 construct: Sirt6-(1-355) in pQE80L.1; made in house; host or cells: E. coli CodonPlus(DE3)
# Description: (§1) A human mini-Sirt1 construct (aa 183-505-(GGGS)2-641-665), as described in [27], was generated in a modified pET-19b with a TEV cleavage site. This construct and human full-length Sirt1 (fl-Sirt1) in pET-15b, Sirt1-(183-664) and Sirt1-(214-664) in pET-15b, mini-Sirt1-∆SBD (aa 214-505-(GGGS)2-641-665) and mini-Sirt1-∆ESA (aa 183–505) in a modified pET-19b with TEV cleavage site, Sirt2-(43-356) in a modified pET-19b with a His6-Sumo tag, Sirt3-(93-399) in a modified pET-32a with Trx-His6 tag and TEV cleavage site, hSirt3-(118-399) in pVFT3S (Sungkyunkwan University, Seoul, Republic of Korea) with His6-Trx tag and TEV cleavage site, Sirt5-(34-302) in pET-151/D-TOPO, and Sirt6-(1-355) in pQE80L.1 were purified as described. […]
# (§2) Continuous coupled enzymatic sirtuin activity assays were conducted as described. […] Reactions were monitored for 1 h at room temperature by absorption spectroscopy at 340 nm in a UV/vis plate reader (BioTek). The slope for the linear range (typically 5–25 min) was evaluated after background correction with measurements without NAD^+. Additional control reactions were run by either omitting enzyme or omitting peptide substrate to ensure that the signal measured reflects the NAD+-dependent deacetylation activity of the sirtuin.
# [3] = target: T3, human Sirt2 (Homo sapiens, UniProt Q8IXJ6); test: Continuous coupled enzymatic assay, Sirt2; conditions: 65 μM Tat-Cys^−, acetylated peptide at substrate Km, n = 3
# T3 construct: Sirt2-(43-356) in a modified pET-19b; His6-Sumo; made in house; host or cells: E. coli CodonPlus(DE3)
# T3 sequence (Q8IXJ6 43-356): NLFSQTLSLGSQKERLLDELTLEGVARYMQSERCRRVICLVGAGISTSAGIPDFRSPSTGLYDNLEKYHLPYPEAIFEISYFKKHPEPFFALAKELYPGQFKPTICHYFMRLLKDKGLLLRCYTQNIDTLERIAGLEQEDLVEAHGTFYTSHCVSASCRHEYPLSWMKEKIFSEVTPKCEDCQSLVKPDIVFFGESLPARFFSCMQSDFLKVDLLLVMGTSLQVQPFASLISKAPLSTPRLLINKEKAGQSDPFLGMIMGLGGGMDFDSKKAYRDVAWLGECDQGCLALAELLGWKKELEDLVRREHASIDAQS
# Description: as §1, §2
# T2 sequence (Q8N6T7 whole entry): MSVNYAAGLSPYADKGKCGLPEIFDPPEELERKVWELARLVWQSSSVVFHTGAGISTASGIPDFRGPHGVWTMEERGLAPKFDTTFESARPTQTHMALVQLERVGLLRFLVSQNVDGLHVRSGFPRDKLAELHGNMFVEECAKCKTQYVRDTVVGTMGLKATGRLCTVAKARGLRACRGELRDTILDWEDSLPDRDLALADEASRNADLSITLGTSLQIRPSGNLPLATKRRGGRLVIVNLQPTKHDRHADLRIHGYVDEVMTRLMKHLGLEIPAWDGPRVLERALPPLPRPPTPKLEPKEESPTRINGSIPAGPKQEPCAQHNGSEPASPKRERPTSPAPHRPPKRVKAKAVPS
molecule,measurement,setting,value
"Tat-Cys^−: Recombinant 86-residue HIV1 Zaire 2 Tat with C22S, C25A, C27A, C30S, C31A, C34S, and C37A (protein) MDPVDPNIEPWNHPGSQPKTASNRAHAKKSAYHSQVAFITKGLGISYGRKKRRQRRRPSQGGQTHQDPIPKQPSSQPRGDPTGPKE","relative isoform inhibition, Sirt1 vs other isoforms",[1],slightly more potent inhibition of this isoform
same,"inhibitory effect on Sirt6, continuous assay",[2],no statistically significant effect was observed
same,"inhibitory effect on Sirt2, continuous assay",[3],pronounced inhibitory effects
